The values that follow come from patent US20130338077A1 (INDIANA UNIVERSITY RESEARCH AND TECHNOLOGY, published 2013).

In the experiment the target is T1, recombinant human p65 protein, full-length, with DDK (r-p65:DDK) (human, UniProt Q04206 1-551).
T1 construct: mature; also called full-length r-p65:DDK; p65 subunit of NF-kB; not shown: DDK tag
As to the kind of experiment: kinetic ELISA, plate-bound GILZ-P probed with r-p65:DDK; Scatchard plot and linear regression; plate-bound GILZ-P (synthetic peptide), not r-GILZ. (ELISA stands for enzyme-linked immunosorbent assay.)

T1 sequence (Q04206 whole entry): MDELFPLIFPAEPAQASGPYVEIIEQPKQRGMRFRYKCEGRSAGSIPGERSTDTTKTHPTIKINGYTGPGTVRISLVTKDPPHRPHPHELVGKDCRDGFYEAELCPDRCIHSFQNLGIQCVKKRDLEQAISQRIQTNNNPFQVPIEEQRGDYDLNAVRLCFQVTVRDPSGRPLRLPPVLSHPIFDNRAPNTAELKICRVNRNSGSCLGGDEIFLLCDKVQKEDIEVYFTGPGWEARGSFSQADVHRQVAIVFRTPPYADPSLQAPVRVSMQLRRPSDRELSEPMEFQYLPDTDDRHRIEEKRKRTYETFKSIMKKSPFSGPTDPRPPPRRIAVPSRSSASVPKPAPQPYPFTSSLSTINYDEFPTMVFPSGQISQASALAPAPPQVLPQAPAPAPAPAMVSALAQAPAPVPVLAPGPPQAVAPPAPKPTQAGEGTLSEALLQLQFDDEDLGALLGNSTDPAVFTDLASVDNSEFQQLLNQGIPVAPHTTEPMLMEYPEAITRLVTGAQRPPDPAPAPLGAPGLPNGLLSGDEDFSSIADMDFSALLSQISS

Ac-CLSPEEPAPESPQVPEAPGGSAV-NH2 (also called GILZ-WT; GILZ-P115-137) [GILZ-peptide (GILZ-P), synthetic peptide from the carboxy terminus of GILZ]: the Kd is 1120 nM.

A word on the Kd: it is the equilibrium constant for the complex coming apart.
